In patent publication US20100004182A1 (MARUHA, published 2010):

What was measured:
[1] = biological target: xanthine oxidase (XO) from butter milk (from Wako Pure Chemical) (UniProt P80457 2-1332); assay: cell-based or functional assay
[2] = biological target: xanthine oxidase (XO) of cow's milk (from Wako Pure Chemical) (cow, UniProt P80457 2-1332); assay: cell-based or functional assay
xanthine oxidase (XO) of cow's milk (from Wako Pure Chemical), sequence (P80457 2-1332 limits assumed): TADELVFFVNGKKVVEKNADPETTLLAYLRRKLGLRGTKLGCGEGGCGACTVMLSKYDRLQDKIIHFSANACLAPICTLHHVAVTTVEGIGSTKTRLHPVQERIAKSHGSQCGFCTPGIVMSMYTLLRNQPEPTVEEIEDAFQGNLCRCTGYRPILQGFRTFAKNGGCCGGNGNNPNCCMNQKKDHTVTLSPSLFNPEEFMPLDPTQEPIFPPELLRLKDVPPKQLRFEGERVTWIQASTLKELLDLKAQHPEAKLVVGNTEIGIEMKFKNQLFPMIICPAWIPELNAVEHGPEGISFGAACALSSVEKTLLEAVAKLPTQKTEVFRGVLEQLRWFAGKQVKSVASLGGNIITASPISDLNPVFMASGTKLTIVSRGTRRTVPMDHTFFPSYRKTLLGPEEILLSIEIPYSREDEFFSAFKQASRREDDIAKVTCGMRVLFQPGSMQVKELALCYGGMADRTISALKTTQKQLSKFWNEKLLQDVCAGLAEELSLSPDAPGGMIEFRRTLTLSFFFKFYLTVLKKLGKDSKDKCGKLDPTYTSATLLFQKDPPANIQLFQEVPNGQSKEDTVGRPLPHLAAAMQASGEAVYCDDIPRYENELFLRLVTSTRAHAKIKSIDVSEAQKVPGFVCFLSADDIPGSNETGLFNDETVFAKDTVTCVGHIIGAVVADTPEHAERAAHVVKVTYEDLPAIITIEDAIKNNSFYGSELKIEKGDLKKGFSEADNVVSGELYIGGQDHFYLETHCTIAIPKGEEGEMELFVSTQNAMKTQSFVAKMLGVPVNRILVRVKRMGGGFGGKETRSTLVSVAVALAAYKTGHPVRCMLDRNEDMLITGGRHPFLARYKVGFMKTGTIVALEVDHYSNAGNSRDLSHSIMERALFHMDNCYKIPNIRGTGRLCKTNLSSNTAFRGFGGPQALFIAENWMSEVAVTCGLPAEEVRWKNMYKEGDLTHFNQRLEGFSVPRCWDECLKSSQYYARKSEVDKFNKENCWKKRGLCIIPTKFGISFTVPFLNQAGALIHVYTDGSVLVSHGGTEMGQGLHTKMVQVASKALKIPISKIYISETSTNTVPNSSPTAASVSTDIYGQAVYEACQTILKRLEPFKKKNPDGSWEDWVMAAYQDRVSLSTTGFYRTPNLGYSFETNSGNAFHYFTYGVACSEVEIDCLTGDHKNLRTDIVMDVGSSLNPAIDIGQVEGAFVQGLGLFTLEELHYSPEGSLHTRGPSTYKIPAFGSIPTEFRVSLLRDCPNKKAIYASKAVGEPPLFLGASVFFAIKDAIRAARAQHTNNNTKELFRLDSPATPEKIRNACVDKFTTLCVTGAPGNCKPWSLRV

xanthine oxidase (XO) from butter milk (from Wako Pure Chemical), sequence (P80457 2-1332 limits assumed): as above

Binder	50% inhibitory concentration (IC50) of xanthine oxidase activity (uric acid produced from xanthine, OD at 292 nm) [1]	50% inhibitory concentration (IC50) of xanthine oxidase activity (uric acid produced from xanthine, OD at 292 nm) [2]
YINY [polypeptide having SEQ ID No. 2 (YINY)]	3700 µM	–
LDNY [peptide LDNY]	–	750 µM
DN [peptide DN]	–	500 µM
YLDN [peptide YLDN]	–	1200 µM
LD [peptide LD]	–	1700 µM
